Target: CA1.CD2-P40 (CA1.CD2 PEGylated with P40) (rat) (UniProt P08921)
Assay: Western blot, CA1.CD2 PEGylated with P40

Sequence of CA1.CD2-P40 (CA1.CD2 PEGylated with P40) (rat) (P08921 23-121 limits assumed): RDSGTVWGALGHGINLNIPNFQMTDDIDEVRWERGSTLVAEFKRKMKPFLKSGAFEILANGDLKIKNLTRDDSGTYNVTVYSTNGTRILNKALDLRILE

OX34 antibody
decrease of binding against unmodified CA1.CD2: 50%

— patent publication US20180250426A1
